B1: C-type lectin domain family 10 member A expressed on cells (receptor)
chain: MTRTYENFQYLENKVKVQGFKNGPLPLQSLLQRLCSGPCHLLLSLGLGLLLLVIICVVGFQNSKFQRDLVTLRTDFSNFTSNTVAEIQALTSQGSSLEETIASLKAEVEGFKQERQAGVSELQEHTTQKAHLGHCPHCPSVCVPVHSEMLLRVQQLVQDLKKLTCQVATLNNNASTEGTCCPVNWVEHQDSCYWFSHSGMSWAEAEKYCQLKNAHLVVINSREEQNFVQKYLGSAYTWMGLSDPEGAWKWVDGTDYATGFQNWKPGQPDDWQGHGLGGGEDCAHFHPDGRWNDDVCQRPYHWVCEAGLGQTSQESH
notes: whole, on cells; also called CLEC10A
B2: Dendritic cell-specific intercellular adhesion molecule-3-grabbing nonintegrin expressed on cells (receptor)
chain: MSDSKEPRLQQLGLLEEEQLRGLGFRQTRGYKSLAGCLGHGPLVLQLLSFTLLAGLLVQVSKVPSSISQEQSRQDAIYQNLTQLKAAVGELSEKSKLQEIYQELTQLKAAVGELPEKSKLQEIYQELTRLKAAVGELPEKSKLQEIYQELTWLKAAVGELPEKSKMQEIYQELTRLKAAVGELPEKSKQQEIYQELTRLKAAVGELPEKSKQQEIYQELTRLKAAVGELPEKSKQQEIYQELTQLKAAVERLCHPCPWEWTFFQGNCYFMSNSQRNWHDSITACKEVGAQLVVIKSAEEQNFLQLQSSRSNRFTWMGLSDLNQEGTWQWVDGSPLLPSFKQYWNRGEPNNVGEEDCAEFSGNGWNDDKCNLAKFWICKKSAASCSRDEEQFLSPAPATPNPPPA
notes: whole, on cells; also called DC-SIGN; CD209
B3: Asialoglycoprotein Receptor 1 expressed on cells (receptor)
chain: MTKEYQDLQHLDNEESDHHQLRKGPPPPQPLLQRLCSGPRLLLLSLGLSLLLLVVVCVIGSQNSQLQEELRGLRETFSNFTASTEAQVKGLSTQGGNVGRKMKSLESQLEKQQKDLSEDHSSLLLHVKQFVSDLRSLSCQMAALQGNGSERTCCPVNWVEHERSCYWFSRSGKAWADADNYCRLEDAHLVVVTSWEEQKFVQHHIGPVNTWMGLHDQNGPWKWVDGTDYETGFKNWRPEQPDDWYGHGLGGGEDCAHFTDDGRWNDDVCQRPYRWVCETELDKASQEPPLL
notes: whole, on cells; also called ASGR1
B4: Liver/lymph node-specific intercellular adhesion molecule-3-grabbing integrin expressed on cells (receptor)
chain: MSDSKEPRVQQLGLLEEDPTTSGIRLFPRDFQFQQIHGHKSSTGCLGHGALVLQLLSFMLLAGVLVAILVQVSKVPSSLSQEQSEQDAIYQNLTQLKAAVGELSEKSKLQEIYQELTQLKAAVGELPEKSKLQEIYQELTRLKAAVGELPEKSKLQEIYQELTRLKAAVGELPEKSKLQEIYQELTRLKAAVGELPEKSKLQEIYQELTELKAAVGELPEKSKLQEIYQELTQLKAAVGELPDQSKQQQIYQELTDLKTAFERLCRHCPKDWTFFQGNCYFMSNSQRNWHDSVTACQEVRAQLVVIKTAEEQNFLQLQTSRSNRFSWMGLSDLNQEGTWQWVDGSPLSPSFQRYWNSGEPNNSGNEDCAEFSGSGWNDNRCDVDNYWICKKPAACFRDE
notes: whole, on cells; also called L-SIGN; CLEC4M
B5: Liver and lymph node sinusoidal endothelial cell C-type lectin expressed on cells (receptor)
chain: MDTTRYSKWGGSSEEVPGGPWGRWVHWSRRPLFLALAVLVTTVLWAVILSILLSKASTERAALLDGHDLLRTNASKQTAALGALKEEVGDCHSCCSGTQAQLQTTRAELGEAQAKLMEQESALRELRERVTQGLAEAGRGREDVRTELFRALEAVRLQNNSCEPCPTSWLSFEGSCYFFSVPKTTWAAAQDHCADASAHLVIVGGLDEQGFLTRNTRGRGYWLGLRAVRHLGKVQGYQWVDGVSLSFSHWNQGEPNDAWGRENCVMMLHTGLWNDAPCDSEKDGWICEKRHNC
notes: whole, on cells; also called LSECtin; CLEC4G

The experiment addresses T1, S1-69/70 DelFc (SARS-CoV-2, UniProt P0DTC2 14-685).
T1 construct: domain: S1
Description: Fc-tagged protein on receptor-expressing HEK293T cells (FIG. 13A).
B1: the binding result is given as “binds”.
B2: the binding result is recorded as “binds”.
For the molecule B3, the binding result was “binds”.
For the molecule B4, the binding result was “binds”.
On to B5, for which the binding result is recorded as “binds”.

The values above are taken from patent US20220089695A1 (NEW YORK UNIVERSITY, published 2022).
